Blank lines part the entries; values can stand above or below the compound they belong to.
Legend:
[1] = target: recombinant PHCP wild-type (Hydrogenophilus thermoluteolus); experiment: AUC; sedimentation velocity, 5 μM protein, 10 mM Tris-HCl (pH 7.5) with 100 mM NaCl, 20°C, 42,000 rpm, c(s) model in SEDFIT; n = 1
[2] = target: PHCP L76V variant (Hydrogenophilus thermoluteolus); experiment: AUC; sedimentation velocity of the single variants, data not shown; the same analysis as for the wild-type
[3] = target: PHCP A20G variant (Hydrogenophilus thermoluteolus); experiment: as above
[4] = target: PHCP F11T variant (Hydrogenophilus thermoluteolus); experiment: as above
[5] = target: PHCP T18F variant (Hydrogenophilus thermoluteolus); experiment: as above
[6] = target: PHCP F71D variant (Hydrogenophilus thermoluteolus); experiment: as above
[7] = target: T1, PHCP (Hydrogenophilus thermoluteolus cytochrome c') (Hydrogenophilus thermoluteolus, UniProt F7J213); experiment: visible absorption spectroscopy; type: binding; conditions: reduced (dithionite) protein 6 uM; 0.5% (v/v) ligand; 10 mM potassium phosphate pH 7.0; 25 C; isomer of butyl group not stated
T1 construct: gene cytc; mature protein, N-terminal DALKP; authentic protein from H. thermoluteolus cells for crystal
T1 sequence (F7J213 20-154): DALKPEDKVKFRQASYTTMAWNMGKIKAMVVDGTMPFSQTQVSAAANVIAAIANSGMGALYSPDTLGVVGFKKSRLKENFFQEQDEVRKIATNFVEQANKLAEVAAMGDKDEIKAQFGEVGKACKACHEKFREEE

[8] = target: PHCP T17E/A20G/L76V triple variant (Hydrogenophilus thermoluteolus); experiment: AUC; sedimentation velocity, 5 μM protein, 10 mM Tris-HCl (pH 7.5) with 100 mM NaCl, 20°C, 42,000 rpm, c(s) model in SEDFIT; n = 1
[9] = target: PHCP F11T/T18F/F71D triple variant (Hydrogenophilus thermoluteolus); experiment: as above
[10] = target: PHCP T17E variant (Hydrogenophilus thermoluteolus); experiment: AUC; sedimentation velocity of the single variants, data not shown; the same analysis as for the wild-type

Compound: PHCP A20G variant (natural protein)
stoichiometry N [3]: 2

Compound: PHCP T18F variant (natural protein)
stoichiometry N [5]: 2

Compound: PHCP F71D variant (natural protein)
stoichiometry N [6]: 2

Compound: [C-]#[N+]CCCC [butyl-isocyanide]
visible absorption spectroscopy [7]: PHCP is able to bind CO, NO, and large ligands such as butyl‐isocyanide and imidazole

Compound: PHCP T17E variant (natural protein)
stoichiometry N [10]: 2

Other lines, results leading:

population of the dimer species [1]: 99.9%
stoichiometry N [1]: 2
Compound: recombinant PHCP wild-type (natural protein)

stoichiometry N [2]: 2
Compound: PHCP L76V variant (natural protein)

stoichiometry N [4]: 2
Compound: PHCP F11T variant (natural protein)

population of the dimer species [8]: 91.1%
stoichiometry N [8]: 2
Compound: PHCP T17E/A20G/L76V triple variant (natural protein)

population of the dimer species [9]: 97.7%
stoichiometry N [9]: 2
Compound: PHCP F11T/T18F/F71D triple variant (natural protein)
